From doi:10.1101/2022.02.08.479556

Target: SARS-CoV-2 nucleocapsid protein N:G215C mutant (SARS-CoV-2) (UniProt P0DTC9)
Assay: AUC

“SARS-CoV-2 nucleocapsid protein N:G215C mutant (from UniProt P0DTC9 1-419) (natural protein)” gave a Kd of 3.3 µM.
